B1: Steroid hormone receptor ERR2, residues 100 to 176; numbered along this chain, O95718 (parent)
chain: KRLCLVCGDIASGYHYGVASCEACKAFFKRTIQGNIEYSCPATNECEITKRRRKSCQACRFMKCLKVGMLKEGVRLD

± gives the uncertainty stated by the source.

Variants of B1 are the subject of this data set. Put plainly: abundance fitness (aPCA) (normalised: wild type 0, dead -1); higher = more abundant; growth selection in yeast, the domain comes from the species named. As to conditions: Homo sapiens.
Regarding QRLCLVCGDIASGYHYGVASCEACKAFFKRTIQGNIEYSCPATNECEITKRRRKSCQACRFMKCLKVGMLKEGVRLD [K1Q], the abundance fitness is -0.346 ± 0.14.

As for KRLCLVCGDIASGYHYGVASCEACKAFPKRTIQGNIEYSCPATNECEITKRRRKSCQACRFMKCLKVGMLKEGVRLD [F28P], the abundance fitness was -0.725 ± 0.14.

Regarding KRLCLVCGDIASGYHYGVASCEACKAFNKRTIQGNIEYSCPATNECEITKRRRKSCQACRFMKCLKVGMLKEGVRLD [F28N], the abundance fitness is -0.922 ± 0.35.

Consider KRLCLVCGDIASGYHYGVASCEACKAFWKRTIQGNIEYSCPATNECEITKRRRKSCQACRFMKCLKVGMLKEGVRLD [F28W], for which the abundance fitness worked out at 0.167 ± 0.039.

As to KRLCLVCGDIASGYHYGVASCEACKAFTKRTIQGNIEYSCPATNECEITKRRRKSCQACRFMKCLKVGMLKEGVRLD [F28T], the abundance fitness is -0.664 ± 0.12.

For the variant KRLCLVCGDIASGYHYGVASCEACKAFFKRTIKGNIEYSCPATNECEITKRRRKSCQACRFMKCLKVGMLKEGVRLD [Q33K], the abundance fitness is -0.212 ± 0.094.

KRLCLVCGDIASGYHYGVASCEACKAFFKRTIQGNIEYSCPATNECEITKRRRKSCQARRFMKCLKVGMLKEGVRLD [C59R]: the abundance fitness was -0.755 ± 0.074.

Take KRLCLVCGDIASGYHYGVASCEACKAFFKRTIQGNIEYSCPATNECEITKRRRKSCQACRFMKCLKVGCLKEGVRLD [M69C]: the abundance fitness was -0.937 ± 0.21.

On to KRLCLVCGDIASGYHYGVASCEACKVFFKRTIQGNIEYSCPATNECEITKRRRKSCQACRFMKCLKVGMLKEGVRLD [A26V], for which the abundance fitness came out at 0.114 ± 0.043.

For KRLCLVCGDIASGYHYGVASCEACKWFFKRTIQGNIEYSCPATNECEITKRRRKSCQACRFMKCLKVGMLKEGVRLD [A26W], the abundance fitness was -0.075 ± 0.042.

As to KRLCLVCGDIASGYHYGVASCAACKAFFKRTIQGNIEYSCPATNECEITKRRRKSCQACRFMKCLKVGMLKEGVRLD [E22A], the abundance fitness was determined as 0.012 ± 0.046.

In the case of KRLCLVCGDIASGYHYGVASCTACKAFFKRTIQGNIEYSCPATNECEITKRRRKSCQACRFMKCLKVGMLKEGVRLD [E22T], the abundance fitness is -0.19 ± 0.061.

Consider KRLCLYCGDIASGYHYGVASCEACKAFFKRTIQGNIEYSCPATNECEITKRRRKSCQACRFMKCLKVGMLKEGVRLD [V6Y], for which the abundance fitness was -0.57 ± 0.16.

KRLCLVCGDIASGYHYGVASCEACKAFFKRTIQGNIEYSCPATNECEITKRRRKSCQRCRFMKCLKVGMLKEGVRLD [A58R]: the abundance fitness is -0.076 ± 0.04.

In the case of KRLCLVCGDIASGYHYGVASCEACKAFFKRTIQGNIEYSCPWTNECEITKRRRKSCQACRFMKCLKVGMLKEGVRLD [A42W], the abundance fitness is -0.043 ± 0.043.

For KRLCLVCGDIASGYHYGVASCEACVAFFKRTIQGNIEYSCPATNECEITKRRRKSCQACRFMKCLKVGMLKEGVRLD [K25V], the abundance fitness turned out to be 0.344 ± 0.034.

As to KRLCLVCGDIASGYHYGVASCEACKAFFKRTIQGNIEYSCPATNECEITKRRRKSCQACRFMKCLKVGMLKEEVRLD [G73E], the abundance fitness came out at 0.118 ± 0.052.

With KRLCLVSGDIASGYHYGVASCEACKAFFKRTIQGNIEYSCPATNECEITKRRRKSCQACRFMKCLKVGMLKEGVRLD [C7S], the abundance fitness is -0.726 ± 0.097.

On to KRLCLVCGDIASGYHYGVASCEACKAFFKRTIQGNIEYSCPATNECEITKRRRKSCQACRFMKCLKVGMLKEGVRWD [L76W], for which the abundance fitness is -0.095 ± 0.053.

Consider KRLCLVCGDIASGYHYGVASCEACKAFFKRTIQGNIEYSCPATNECEITKRRRKSCQACRFMKCLKVGMLKEGVRDD [L76D], for which the abundance fitness is 0.08 ± 0.09.

Consider KRLCLVCGDIASGYHYGVASCEACKAFFKRTIQGNIEYSCPATNECEITKRRRKSCQACRFMKCLKVHMLKEGVRLD [G68H], for which the abundance fitness was -0.657 ± 0.17.

KRLCLVCGDIASGYHYGVASCEACKAFFKRTIQGNIEYSCPATNECEITKRRRKSCQACRFMKCLKVGMNKEGVRLD [L70N]: the abundance fitness worked out at 0.032 ± 0.085.

With KRLCLVCGDIASGYHYGVASCEACKAFFKRTIQGNIEYSCPAYNECEITKRRRKSCQACRFMKCLKVGMLKEGVRLD [T43Y], the abundance fitness is -0.252 ± 0.18.

Regarding KRLCLVCMDIASGYHYGVASCEACKAFFKRTIQGNIEYSCPATNECEITKRRRKSCQACRFMKCLKVGMLKEGVRLD [G8M], the abundance fitness is -0.201 ± 0.071.

With KRLCLVCGDIASGYHYGVRSCEACKAFFKRTIQGNIEYSCPATNECEITKRRRKSCQACRFMKCLKVGMLKEGVRLD [A19R], the abundance fitness was -0.331 ± 0.041.

Regarding KRLCLVCGDIASGYHYGVWSCEACKAFFKRTIQGNIEYSCPATNECEITKRRRKSCQACRFMKCLKVGMLKEGVRLD [A19W], the abundance fitness is -0.307 ± 0.057.

In the case of KRLCLVCGDIASGYHYGVAICEACKAFFKRTIQGNIEYSCPATNECEITKRRRKSCQACRFMKCLKVGMLKEGVRLD [S20I], the abundance fitness came out at 0.26 ± 0.075.

On to KRLCLVCGDIASGYHYGVAFCEACKAFFKRTIQGNIEYSCPATNECEITKRRRKSCQACRFMKCLKVGMLKEGVRLD [S20F], for which the abundance fitness was -0.485 ± 0.12.

Consider KRLCLVCGDIASGYHYGLASCEACKAFFKRTIQGNIEYSCPATNECEITKRRRKSCQACRFMKCLKVGMLKEGVRLD [V18L], for which the abundance fitness was -0.613 ± 0.071.

For KRLCLVCGDIASGYHYGVASCEACKAFFKRTIQGNIEYSCPATNEDEITKRRRKSCQACRFMKCLKVGMLKEGVRLD [C46D], the abundance fitness is -0.844 ± 0.22.

For the variant KRLCLVCGDIASGYHYGVASCEACKAFFKRTIQGNIEYSCPATNEFEITKRRRKSCQACRFMKCLKVGMLKEGVRLD [C46F], the abundance fitness was -0.768 ± 0.21.

As to KRLCLVCGDIASGYHYGVASCEACKAFFKRTIQGNIRYSCPATNECEITKRRRKSCQACRFMKCLKVGMLKEGVRLD [E37R], the abundance fitness was -0.371 ± 0.053.

For the variant KRLCLVCGDIASGYHYGVASCEACKAFFKRTIQGNITYSCPATNECEITKRRRKSCQACRFMKCLKVGMLKEGVRLD [E37T], the abundance fitness is -0.796 ± 0.21.

Turning to KRLCLVCGDIASGYHYGVASCEACKAFFKRTIQGNIEYSCPATNECEITKRRRKSCQACRFMKCLKVGMLIEGVRLD [K71I], the abundance fitness is -0.047 ± 0.09.

Turning to KRLCLVCGDIASGYWYGVASCEACKAFFKRTIQGNIEYSCPATNECEITKRRRKSCQACRFMKCLKVGMLKEGVRLD [H15W], the abundance fitness is -0.1 ± 0.066.

Values taken from the Human Domainome abundance scans (Beltran et al. 2025).
